Results as given in patent US20160130315A1 (AJOU UNIVERSITY INDUSTRY ACADEMIC COOPERATION FOUNDATION, published 2016).

T1: Sema3A (26-760) (UniProt Q14563 26-760)
T1 construct: range 26-760; Control ligand; Biotinylated in the ELISA; also called Semaphorin3A; Semaphorin 3A
T1 sequence (looked up): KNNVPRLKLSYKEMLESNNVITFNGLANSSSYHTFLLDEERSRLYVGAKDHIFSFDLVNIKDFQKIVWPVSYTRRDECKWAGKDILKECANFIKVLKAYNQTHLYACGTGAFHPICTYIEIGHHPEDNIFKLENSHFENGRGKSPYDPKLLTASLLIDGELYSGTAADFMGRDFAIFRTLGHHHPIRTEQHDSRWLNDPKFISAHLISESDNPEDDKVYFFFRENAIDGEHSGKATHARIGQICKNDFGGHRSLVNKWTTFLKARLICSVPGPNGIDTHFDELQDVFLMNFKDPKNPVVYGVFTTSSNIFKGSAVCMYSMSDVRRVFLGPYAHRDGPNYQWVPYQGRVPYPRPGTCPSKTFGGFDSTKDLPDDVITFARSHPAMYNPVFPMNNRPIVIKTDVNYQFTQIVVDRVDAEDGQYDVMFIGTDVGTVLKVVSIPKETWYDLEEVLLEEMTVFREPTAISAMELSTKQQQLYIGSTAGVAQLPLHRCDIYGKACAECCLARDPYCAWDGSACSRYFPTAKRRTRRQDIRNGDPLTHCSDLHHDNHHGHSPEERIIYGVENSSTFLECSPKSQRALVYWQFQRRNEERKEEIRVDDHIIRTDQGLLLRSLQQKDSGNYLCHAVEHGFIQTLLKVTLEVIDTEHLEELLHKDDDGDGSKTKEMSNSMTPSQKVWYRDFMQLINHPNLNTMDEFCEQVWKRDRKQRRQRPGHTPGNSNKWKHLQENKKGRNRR

T2: Sema3F (19-779) (UniProt Q13275 19-779)
T2 construct: range 19-779; Control ligand; Biotinylated in the ELISA; also called Semaphorin 3F
T2 sequence (looked up): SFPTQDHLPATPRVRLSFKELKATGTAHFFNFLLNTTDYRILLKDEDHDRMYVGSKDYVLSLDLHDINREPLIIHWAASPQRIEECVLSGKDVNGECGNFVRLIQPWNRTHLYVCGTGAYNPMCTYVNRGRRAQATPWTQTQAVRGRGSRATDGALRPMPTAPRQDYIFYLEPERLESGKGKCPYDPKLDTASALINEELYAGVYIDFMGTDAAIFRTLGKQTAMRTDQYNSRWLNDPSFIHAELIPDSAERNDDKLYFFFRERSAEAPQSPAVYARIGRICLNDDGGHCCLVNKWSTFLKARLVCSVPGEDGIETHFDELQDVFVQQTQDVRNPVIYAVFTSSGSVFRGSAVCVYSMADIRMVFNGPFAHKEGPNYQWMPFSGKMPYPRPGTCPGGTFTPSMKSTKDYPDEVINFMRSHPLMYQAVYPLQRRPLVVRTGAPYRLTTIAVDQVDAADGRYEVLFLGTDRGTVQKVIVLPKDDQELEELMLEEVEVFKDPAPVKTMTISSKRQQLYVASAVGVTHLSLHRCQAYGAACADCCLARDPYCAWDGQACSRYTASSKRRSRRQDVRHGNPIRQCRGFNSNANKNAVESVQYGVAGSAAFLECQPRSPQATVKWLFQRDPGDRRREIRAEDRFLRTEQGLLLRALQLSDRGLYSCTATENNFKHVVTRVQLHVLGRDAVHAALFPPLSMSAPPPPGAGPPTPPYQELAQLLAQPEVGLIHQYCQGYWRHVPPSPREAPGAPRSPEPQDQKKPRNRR


Key:
Sema3A (26-760) = target: T1, Sema3A (26-760); assay: SPR Biacore 2000, NRP b1b2 on CM5 chip
Sema3F (19-779) = target: T2, Sema3F (19-779); assay: SPR Biacore 2000, NRP b1b2 on CM5 chip
Protocol: Specifically, each b1b2 domain of neuropilin-1 and -2 was diluted with 10 mM Na-acetate buffer (pH 4.0), and fixed onto CM5 sensor chips (GE healthcare, USA) in about 1000 response units (RU). […] After bond and dissociation analysis, the regeneration of CM5 chip was performed by streaming a buffer (20 Mm NaOH, 1 M NaCl, pH 10.0) at a stream velocity 30 μl/min for 1 minute.

Row | Binder | Kd (Sema3A (26-760)) [nM] | koff (Sema3A (26-760)) [s⁻¹] | kon (Sema3A (26-760)) [M⁻¹ s⁻¹] | Kd (Sema3F (19-779)) [nM] | koff (Sema3F (19-779)) [s⁻¹] | kon (Sema3F (19-779)) [M⁻¹ s⁻¹]
1 | b1b2 domains (275-595) of neuropilin-2 (receptor, UniProt O60462 275-595, looked up, range 275-595; Purified soluble domain; also called NRP2-b1b2; NRP-2 b1b2) FQCNVPLGMESGRIANEQISASSTYSDGRWTPQQSRLHGDDNGWTPNLDSNKEYLQVDLRFLTMLTAIATQGAISRETQNGYYVKSYKLEVSTNGEDWMVYRHGKNHKVFQANNDATEVVLNKLHAPLLTRFVRIRPQTWHSGIALRLELFGCRVTDAPCSNMLGMLSGLIADSQISASSTQEYLWSPSAARLVSSRSGWFPRIPQAQPGEEWLQVDLGTPKTVKGVIIQGARGGDSITAVEARAFVRKFKVSYSLNGKDWEYIQDPRTQQPKLFEGNMHYDTPDIRRFDPIPAQYVRVYPERWSPAGIGMRLEVLGCDWT | 231 | 0.00161 | 6960 | 345 | 0.0015 | 4340
2 | b1b2 domains (273-586) of neuropilin-1 (receptor, UniProt O14786 273-586, looked up, range 273-586; Purified soluble domain; No tag described; also called NRP1-b1b2; NRP-1 b1b2) FKCMEALGMESGEIHSDQITASSQYSTNWSAERSRLNYPENGWTPGEDSYREWIQVDLGLLRFVTAVGTQGAISKETKKKYYVKTYKIDVSSNGEDWITIKEGNKPVLFQGNTNPTDVVVAVFPKPLITRFVRIKPATWETGISMRFEVYGCKITDYPCSGMLGMVSGLISDSQITSSNQGDRNWMPENIRLVTSRSGWALPPAPHSYINEWLQIDLGEEKIVRGIIIQGGKHRENKVFMRKFKIGYSNNGSDWKMIMDDSKRKAKSFEGNNNYDTPELRTFPALSTRFIRIYPERATHGGLGLRMELLGCEVE | 27.9 | 0.000808 | 28900 | 245 | 0.000973 | 3980
